From patent US20240108738A1 (Bicycle, published 2024)
Numbered stars: 1 amine (or outer) side, 2 acyl side, 3 side chain; on linkers, the order of the positions; unused ones are H or OH. Bridge positions count the residues as written; N and C are the ends. Square brackets hold non-standard residues; d marks the D form. Ends that are not written are not given here. * marks the point of attachment. TATA = O=C(CC[*:1])N1CN(C(=O)CC[*:2])CN(C(=O)CC[*:3])C1; Ala(4-thiazolyl) = N[C@@H](Cc1cscn1)C(=O)O; 1Nal = N[C@@H](Cc1cccc2ccccc12)C(=O)O; 2Pal = N[C@@H](Cc1ccccn1)C(=O)O; Cba = N[C@@H](CC1CCC1)C(=O)O; Pent4ynoyl = C#CCCC(=O)*

B1: BCY18286 (peptide)
peptide: ACDLTTHNC[Cba]WGICA-NH2
modifications: linker 2-9-14 via TATA
notes: scaffold TATA
B2: BCY18281 (peptide)
peptide: ACDLTT[His1Me]NCQWGICA-NH2
modifications: linker 2-9-14 via TATA; not fully specified
notes: scaffold TATA
B3: BCY18287 (peptide)
peptide: ACDLTTHNCQ[1Nal]GICA-NH2
modifications: linker 2-9-14 via TATA; N-terminus assumed
SMILES: CC[C@H](C)[C@@H]1NC(=O)CNC(=O)[C@H](Cc2cccc3ccccc23)NC(=O)[C@H](CCC(N)=O)NC(=O)[C@@H]2CSCCC(=O)N3CN(CN(C3)C(=O)CCSC[C@@H](C(=O)N[C@@H](C)C(N)=O)NC1=O)C(=O)CCSC[C@H](NC(=O)[C@H](C)N)C(=O)N[C@@H](CC(=O)O)C(=O)N[C@@H](CC(C)C)C(=O)N[C@@H]([C@@H](C)O)C(=O)N[C@@H]([C@@H](C)O)C(=O)N[C@@H](Cc1c[nH]cn1)C(=O)N[C@@H](CC(N)=O)C(=O)N2
notes: scaffold TATA
B4: BCY18279 (peptide)
peptide: ACDLTT[His3Me]NCQWGICA-NH2
modifications: linker 2-9-14 via TATA; not fully specified
notes: scaffold TATA
B5: BCY15107 (peptide)
peptide: ACDLTTHNCQWGICA-NH2
modifications: linker 2-9-14 via TATA; also: scaffold TATA, TATB or TBMT
notes: scaffold TATA
B6: BCY18273 (peptide)
peptide: ACNLTTHNCQWGICA-NH2
modifications: linker 2-9-14 via TATA; also: scaffold TATA, TATB or TBMT
notes: scaffold TATA
B7: BCY18292 (peptide)
peptide: ACDLTTHNCQW[dA]ICA-NH2
modifications: linker 2-9-14 via TATA; N-terminus assumed
SMILES: CC[C@H](C)[C@@H]1NC(=O)[C@@H](C)NC(=O)[C@H](Cc2c[nH]c3ccccc23)NC(=O)[C@H](CCC(N)=O)NC(=O)[C@@H]2CSCCC(=O)N3CN(CN(C3)C(=O)CCSC[C@@H](C(=O)N[C@@H](C)C(N)=O)NC1=O)C(=O)CCSC[C@H](NC(=O)[C@H](C)N)C(=O)N[C@@H](CC(=O)O)C(=O)N[C@@H](CC(C)C)C(=O)N[C@@H]([C@@H](C)O)C(=O)N[C@@H]([C@@H](C)O)C(=O)N[C@@H](Cc1c[nH]cn1)C(=O)N[C@@H](CC(N)=O)C(=O)N2
notes: scaffold TATA
B8: BCY18278 (peptide)
peptide: ACDLTLHNCQWGICA-NH2
modifications: linker 2-9-14 via TATA; also: scaffold TATA, TATB or TBMT
notes: scaffold TATA
B9: BCY18005 (peptide)
peptide: ACLLHDHCPNTHPKLCAK(Pent4ynoyl)-NH2
modifications: linker 2-8-16 via TATA (inferred)
notes: scaffold TATA
B10: BCY16837 (peptide)
peptide: ACYLPK(Pent4ynoyl)YLCGDEYCA-NH2
modifications: linker 2-9-14 via TATA; N-terminus assumed
SMILES: C#CCCC(=O)NCCCC[C@@H]1NC(=O)[C@@H]2CCCN2C(=O)[C@H](CC(C)C)NC(=O)[C@H](Cc2ccc(O)cc2)NC(=O)[C@@H](NC(=O)[C@H](C)N)CSCCC(=O)N2CN3CN(C2)C(=O)CCSC[C@@H](C(=O)N[C@@H](C)C(N)=O)NC(=O)[C@H](Cc2ccc(O)cc2)NC(=O)[C@H](CCC(=O)O)NC(=O)[C@H](CC(=O)O)NC(=O)CNC(=O)[C@H](CSCCC3=O)NC(=O)[C@H](CC(C)C)NC(=O)[C@H](Cc2ccc(O)cc2)NC1=O
notes: scaffold TATA
B11: BCY16840 (peptide)
peptide: ACYLPDYLCK(Pent4ynoyl)DEYCA-NH2
modifications: linker 2-9-14 via TATA; N-terminus assumed
SMILES: C#CCCC(=O)NCCCC[C@@H]1NC(=O)[C@@H]2CSCCC(=O)N3CN(CN(C3)C(=O)CCSC[C@@H](C(=O)N[C@@H](C)C(N)=O)NC(=O)[C@H](Cc3ccc(O)cc3)NC(=O)[C@H](CCC(=O)O)NC(=O)[C@H](CC(=O)O)NC1=O)C(=O)CCSC[C@H](NC(=O)[C@H](C)N)C(=O)N[C@@H](Cc1ccc(O)cc1)C(=O)N[C@@H](CC(C)C)C(=O)N1CCC[C@H]1C(=O)N[C@@H](CC(=O)O)C(=O)N[C@@H](Cc1ccc(O)cc1)C(=O)N[C@@H](CC(C)C)C(=O)N2
notes: scaffold TATA
B12: BCY18261 (peptide)
peptide: Ac-ACDLTTHNCQWGICA-NH2
modifications: linker 2-9-14 via TATA
notes: scaffold TATA
B13: BCY17662 (peptide)
peptide: ACYLPDYLC[dK](Pent4ynoyl)DEYCA-NH2
modifications: linker 2-9-14 via TATA; N-terminus assumed
SMILES: C#CCCC(=O)NCCCC[C@H]1NC(=O)[C@@H]2CSCCC(=O)N3CN(CN(C3)C(=O)CCSC[C@@H](C(=O)N[C@@H](C)C(N)=O)NC(=O)[C@H](Cc3ccc(O)cc3)NC(=O)[C@H](CCC(=O)O)NC(=O)[C@H](CC(=O)O)NC1=O)C(=O)CCSC[C@H](NC(=O)[C@H](C)N)C(=O)N[C@@H](Cc1ccc(O)cc1)C(=O)N[C@@H](CC(C)C)C(=O)N1CCC[C@H]1C(=O)N[C@@H](CC(=O)O)C(=O)N[C@@H](Cc1ccc(O)cc1)C(=O)N[C@@H](CC(C)C)C(=O)N2
notes: scaffold TATA
B14: BCY18280 (peptide)
peptide: ACDLTT[2Pal]NCQWGICA-NH2
modifications: linker 2-9-14 via TATA; N-terminus assumed
SMILES: CC[C@H](C)[C@@H]1NC(=O)CNC(=O)[C@H](Cc2c[nH]c3ccccc23)NC(=O)[C@H](CCC(N)=O)NC(=O)[C@@H]2CSCCC(=O)N3CN(CN(C3)C(=O)CCSC[C@@H](C(=O)N[C@@H](C)C(N)=O)NC1=O)C(=O)CCSC[C@H](NC(=O)[C@H](C)N)C(=O)N[C@@H](CC(=O)O)C(=O)N[C@@H](CC(C)C)C(=O)N[C@@H]([C@@H](C)O)C(=O)N[C@@H]([C@@H](C)O)C(=O)N[C@@H](Cc1ccccn1)C(=O)N[C@@H](CC(N)=O)C(=O)N2
notes: scaffold TATA
B15: BCY18004 (peptide)
peptide: ACNLQNPCMKFPCAK(Pent4ynoyl)-NH2
modifications: linker 2-8-13 via TATA (inferred)
notes: scaffold TATA
B16: BCY16843 (peptide)
peptide: ACYLPDYLCGDEK(Pent4ynoyl)CA-NH2
modifications: linker 2-9-14 via TATA; N-terminus assumed
SMILES: C#CCCC(=O)NCCCC[C@@H]1NC(=O)[C@H](CCC(=O)O)NC(=O)[C@H](CC(=O)O)NC(=O)CNC(=O)[C@@H]2CSCCC(=O)N3CN(CN(C3)C(=O)CCSC[C@@H](C(=O)N[C@@H](C)C(N)=O)NC1=O)C(=O)CCSC[C@H](NC(=O)[C@H](C)N)C(=O)N[C@@H](Cc1ccc(O)cc1)C(=O)N[C@@H](CC(C)C)C(=O)N1CCC[C@H]1C(=O)N[C@@H](CC(=O)O)C(=O)N[C@@H](Cc1ccc(O)cc1)C(=O)N[C@@H](CC(C)C)C(=O)N2
notes: scaffold TATA
B17: BCY18282 (peptide)
peptide: ACDLTT[Ala(4-thiazolyl)]NCQWGICA-NH2
modifications: linker 2-9-14 via TATA; N-terminus assumed
SMILES: CC[C@H](C)[C@@H]1NC(=O)CNC(=O)[C@H](Cc2c[nH]c3ccccc23)NC(=O)[C@H](CCC(N)=O)NC(=O)[C@@H]2CSCCC(=O)N3CN(CN(C3)C(=O)CCSC[C@@H](C(=O)N[C@@H](C)C(N)=O)NC1=O)C(=O)CCSC[C@H](NC(=O)[C@H](C)N)C(=O)N[C@@H](CC(=O)O)C(=O)N[C@@H](CC(C)C)C(=O)N[C@@H]([C@@H](C)O)C(=O)N[C@@H]([C@@H](C)O)C(=O)N[C@@H](Cc1cscn1)C(=O)N[C@@H](CC(N)=O)C(=O)N2
notes: scaffold TATA
B18: BCY18260 (peptide)
peptide: Ac-CDLTTHNCQWGIC-NH2
modifications: linker 1-8-13 via TATA
notes: scaffold TATA
B19: BCY16842 (peptide)
peptide: ACYLPDYLCGDK(Pent4ynoyl)YCA-NH2
modifications: linker 2-9-14 via TATA; N-terminus assumed
SMILES: C#CCCC(=O)NCCCC[C@@H]1NC(=O)[C@H](CC(=O)O)NC(=O)CNC(=O)[C@@H]2CSCCC(=O)N3CN(CN(C3)C(=O)CCSC[C@@H](C(=O)N[C@@H](C)C(N)=O)NC(=O)[C@H](Cc3ccc(O)cc3)NC1=O)C(=O)CCSC[C@H](NC(=O)[C@H](C)N)C(=O)N[C@@H](Cc1ccc(O)cc1)C(=O)N[C@@H](CC(C)C)C(=O)N1CCC[C@H]1C(=O)N[C@@H](CC(=O)O)C(=O)N[C@@H](Cc1ccc(O)cc1)C(=O)N[C@@H](CC(C)C)C(=O)N2
notes: scaffold TATA

These binders were tested against T1, Human NKp46 Fc tag (Acro Biosystems, NC1-H5257) (human, UniProt O76036 22-255) (assay: SPR Method 1 and/or 2).
T1 construct: bought; also called Fc-tagged human NKp46
Procedure: The SPR analysis was run at 25° C. and a flow rate of 50 μl/min with 60 seconds association and 200-400 seconds dissociation time. Data were corrected for DMSO excluded volume effects. All data were double-referenced for blank injections and reference surface using standard processing procedures and data processing and kinetic fitting were performed using Scrubber software, version 2.0c (BioLogic Software). Data were fitted using simple 1:1 binding model allowing for mass transport effects where appropriate.
For analysis of peptide binding, a Biacore 8k+ instrument was used with a CM5 chip (Cytiva). All experiments were carried out at 25° C. Anti-human IgG (Fc) antibody (Cytiva) was immobilized on all flow cells by standard amine coupling chemistry. The running buffer was HBS-N(Cytiva, 10 mM HEPES, 0.15 M NaCl, pH 7.4) and the flow rate was 10 μL/min. The carboxymethyl dextran surface was activated with a 1:1 ratio of 0.4 M 1-ethyl-3-(3-dimethylaminopropyl) carbodiimide hydrochloride (EDC)/0.1 M N-hydroxy succinimide (NHS) (Cytiva) for 420s. […] Residual activated groups were blocked with a 420 s injection of 1 M ethanolamine (pH 8.5). The final surface density was 3000-5000 RU. Fc-tagged human NKp46 was diluted to 0.1 μM in HBS-N and was captured on flow cell 2 only of the sensor chip at a flow rate of 10 μL/min to 500-1000 RU. The buffer was then changed to PBS-P+(Cytiva) supplemented with 2% DMSO. […] The flow rate was 50 μL/min with 60 s association and 400 s dissociation. Data were corrected for DMSO volume exclusion effects. All data were double-referenced against blank injections and reference surface response using standard processing procedures. Data processing and kinetic fitting was performed using Biacore Insight Evaluation Software with Extended Screening and Characterization Extension (Cytiva). Data were fitted using steady state affinity 1:1 binding model to determine KD. Data were fitted using kinetic 1:1 binding model to determine kinetic constants where appropriate.

T1 sequence (O76036 22-255 limits assumed): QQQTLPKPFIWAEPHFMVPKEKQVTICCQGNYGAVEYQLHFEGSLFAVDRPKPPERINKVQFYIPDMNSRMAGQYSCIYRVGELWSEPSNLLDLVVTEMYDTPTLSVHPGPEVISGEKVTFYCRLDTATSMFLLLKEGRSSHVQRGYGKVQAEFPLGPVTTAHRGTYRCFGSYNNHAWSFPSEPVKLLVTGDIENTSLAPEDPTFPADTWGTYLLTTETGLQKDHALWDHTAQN

| Kd | Binder |
| --- | --- |
| 1230 nM | B1 |
| 424 nM | B2 |
| 637 nM | B3 |
| 599 nM | B4 |
| 396 nM | B5 |
| 326 nM | B6 |
| 1460 nM | B7 |
| 335 nM | B8 |
| 729 nM | B9 |
| 42 nM | B10 |
| 60 nM | B11 |
| 543 nM | B12 |
| 8.1 nM | B13 |
| 1270 nM | B14 |
| 414 nM | B15 |
| 3010 nM | B16 |
| 661 nM | B17 |
| 1240 nM | B18 |
| 2470 nM | B19 |
